Data reported in US20210292393A1 (published 2021).

Biological target: SARS-CoV-2 spike protein with D614G mutation (SARS-CoV-2, UniProt P0DTC2 14-1208)

| Binder | Kd |
| --- | --- |
| anti-SARS-CoV-2 antibody 1091 (antibody, V domains shown) VH: EVQLVESGGGLVKPGGSLRLSCAASGFPFITYSMNWVRQAPGKGLEWVSSISRNSDYIYYADSVRGRVTISRDNAENSLYLQMHSLRAEDTAVYYCARDVVRSGNYYIPRHGMDVWGRGTTVTVSS VL: QSVLTQPPSASGTPGQRVTISCSGTSSNIGSNTVNWYQQLPETAPKLLIYGTDQRPSGVPDRFSGSKSGTSASLAISRLQSEDEADYYCATRDDSLSGPVFGGGTQLTVL | 0.019 nM |
| anti-SARS-CoV-2 antibody 1193 (antibody, V domains shown) VH: EVQLVESGGGLVQPGGSLRLSCAASGFTFSSYYMNWVRQAPGKGLEWVSYISSGSSIIYYADSVKGRFTISRDNAKNSLYLQMNSLRDEDTAVYYCARDSPLRYFDWQLGGGFDYWGQGTLVTVSS VL: QSALTQPASVSGSPGQSITISCTGTSSDVGGYNYVSWYQQHPGKAPKLMIYDVSNRPSGVSNRFSGSKSGNTASLTISGLQAEDEADYYCSSYTSSSLWVFGGGTKLTVL | 0.041 nM |
| anti-SARS-CoV-2 antibody 1203 (antibody, V domains shown) VH: QLRLQESGPGLVKPSETLSLTCTVSGGSISSSNFYWGWIRQPPGKGLEWIGSIYYSGSTHYNPSLKSRVTVSVDTSKNQFSLKLSSVTAADTAVYYCARLTYYYDSSGFIRAEPFDYWGQGILVTVSS VL: not shown | 0.079 nM |
| anti-SARS-CoV-2 antibody 1098 (antibody, V domains shown) VH: DVQLVQSGAEVKKPGESLKISCKGSGYRFTSYWIAWVRQMPGKGLEWMGIIYPGDSDTRYSPSFQGQVTISADKSISTAYLQWSSLKASDTAMYYCASQAAAGYFYYMDVWGKGTTVTVSS VL: not shown | 0.022 nM |
| anti-SARS-CoV-2 antibody 1118 (antibody, V domains shown) VH: EVQLVESGGGLVQPGGSLRLSCAASGFRFSNYEMNWVRQAPGKGLEWVSYISSTGGSIFYADSVKGRFTISRGDAKNSVYLQMNSLRAEDTAVYYCARAMYYYGSGTLDYWGQGTLVTVSS VL: DIQMTQSPSSLSASVGDRVTITCRASQSISRFLNWYQQKPGTAPKLLIYDVSSLQSGVPTRFSGSGSGTDFTLTISSLQPEDFATYYCQQSYTTPPAFGPGTRVDIK | 0.044 nM |

Biological target: SARS-CoV-2 full length spike protein, V483A mutant (SARS-CoV-2, UniProt P0DTC2 14-1273)

| Binder | median fluorescence intensity, fold over isotype control |
| --- | --- |
| antibody 294 (antibody, V domains shown) VH: EVQLVESGGGLVQPGGSLRLSCAASGFTVSSNYMNWVRQAPGKGLEWVSVIYSGGSTYYADSVKGRFTISRDNSKNTLYLQMNSLRAEDTAVYYCARDLGPSGMDVWGQGTTVTVSS VL: DIQMTQSPSSVSASVGDRVTITCRASQGISSWLAWYQQKPGKAPKLLIYAASSLQSGVPSRFSGSGSGTDFTLTISSLQPEDFATYYCQQANSFPLFGGGTKVEIK | 18.4 fold over isotype |
| antibody 288 (antibody, V domains shown) VH: EVQLVESGGGLVQPGGSLRLSCAASGFTFSSYDMHWVRQATGKGLEWVSAIGTAGDTYYPGSVKGRFTISRENAKNSLYLQMNSLRAGDTAVYYCARGANRDYDILTGYYSYYYYGMDVWGQGTTVTVSS VL: not shown | 18.7 fold over isotype |
| antibody 300 (antibody, V domains shown) VH: QVQLVESGGGVVQPGRSLTLSCAASGFTFSSYAMHWVRQAPGKGLEWVALISYDGNNKYYADSVKGRFTFSRDNSKNTLYLQMNSLRAEDTAVYYCARTNSGSYRTAFDYWGQGTLVTVSS VL: DIQMTQSPSTLSASVGDRVTITCRASQSISIWLAWYQQKPGKAPKLLIYKASSLESGVPSRFSGSGSGTEFTLTISSLQPDDFATYYCQQYNSLWTFGQGTKVEIK | 10.2 fold over isotype |
| antibody 260 (antibody, V domains shown) VH: EVQLVESGGGLVQPGRSLRLSCAASGFTFDYYAMHWVRQAPGKGLEWVSGISWNSGTIGYADSVKGRFTISRDNAKNSLYLQMNSLRAEDTALYYCAKDSRPSGRYYYGMDVWGQGTTVTVSS VL: not shown | 11 fold over isotype |
| antibody 273 (antibody, V domains shown) VH: QVQLVQSGAEVKKPGASVKVSCKVSGYTLTELSMHWVRQAPGKGLEWMGGFDPEDGETIYAQKFQGRVTMTEDTSTDTAYMELSSLRSEDTAVYYCATAPGYYDSSAPQPINWFDPWGQGTLVTVSS VL: QSALTQPASVSGSPGQSITISCTGTSSDVGSYNLVSWYQQHPGKAPKLMIYEVSKRPSGVSNRFSGSKSGNTASLTISGLQAEDEADYYCCSYAGSSTLVFGGGTKLTVL | 16 fold over isotype |
| antibody 263 (antibody, V domains shown) VH: EVQLVQSGAEVKKPGATVKISCKVSGYTFTDYYMHWVQQAPGKGLEWMGLVDPEDGETIYAEKFQGRVTITADTSTDTAYMELSSLRSDDTAVYYCTTDLAFTIFGGRRGFDPWGQGTLVTVSS VL: DIQLTQSPSFLSASVGDRVTITCRASQGISSYLAWYQQKPGKAPKLLIYAASTLQSGVPSRFSGSGSGTEFTLTISSLQPEDFATYYCQQLNSYDFGQGTRLEIK | 17.3 fold over isotype |
| antibody 284 (antibody, V domains shown) VH: QVTLRESGPALVKPTQTLTLTCTFSGFSLSTSGMCVSWIRQPPGKALEWLALIDWDDDKYYSTSLKTRLTISKDTSKNQVVLTMTNMDPVDTATYYCARTSGYSSSWPSFDYWGQGTLVTVSS VL: not shown | 22 fold over isotype |
| antibody 303 (antibody, V domains shown) VH: QVQLVESGGGVVQPGRSLRLSCAASGFNLSSYAMHWVRQASGKGLEWVSLISYDGSIKYYADSVKGRFTVSGDNSKNMLFLQMNSLRADDSALYYCVRGGVSGPNAFDIWGQGTTVTVSS VL: not shown | 10 fold over isotype |
| antibody 301 (antibody, V domains shown) VH: QVQLVQSGAEVKKPGASVKVSCKVSGYTLTELSMHWVRQAPGKGLEWMGGFDPEDGETIYAQKFQGRVTMTEDTSTDTAYMELSSLRSEDTAVYYCATAFCGGDCYPPDALDIWGQGTMVTVSS VL: DIQMTQSPSSVSASVGDRVTITCRASQGISSWLAWYQQKPGKAPKLLIYAASSLQSGVPSRFSGSGSGTDFTLTISSLQPEDFATYYCQQANSFPLTFGGGTKVEIK | 21.3 fold over isotype |
| antibody 295 (antibody, V domains shown) VH: QVQLQESGPGLVKPSQTLSLTCTVSGGSISSSDYYWSWIRQPPGKGLEWIGYIYYSGSTYYNPSLKSRVTISVDTSKNQFSLKLSSVTAADTAVYYCARVVGYCSSTSCYVDYWGQGTLVTVSS VL: EIVLTQSPATLSLSPGERVTLSCRASQSVSSYLAWYQQKPGQAPRLLIYDASNRATGIPARFSGSGSGTDFTLTISSLEPEDFAVYYCQQRSNWPPGLTFGGGTKVEIK | 9.93 fold over isotype |
| antibody 264 (antibody, V domains shown) VH: QVHLVESGGGVVQPGRSLRLSCAASGFTLTSYAMHWVRQAPGKGLEWVALISYDGSVKKYAESVKGRITVSGDNSRNTLHLQINTLRADDTAVYYCVRGGVSGPNSFDLWGQGTMVTVSS VL: DVVMTQSPLSLPVTLGQPASISCRSSQSLEYSDGNTYVNWFQQRPGQSPRRLIYQVSNRASGVPDRFSGSGSGTDFTLQISRVEAEDVGIYYCMQGTHWPVTFGQGTKVEIK | 11.1 fold over isotype |
| antibody 266 (antibody, V domains shown) VH: QVQLVESGGGVVQPGRSLRLSCAASGFNLSNYAMHWVRQPSGKGLEWVSLISYDGSIKYYTDSVKGRFTVSGDNSKNTLFLQMNSLRPDDSALYYCVRGGVSGPNSFDMWGQGTTVTVSS VL: DVVMTQSPLSLPVTLGQPASISCRSSQSLVYSDGNTYVNWFQQRPGQSPRRLIYQVSIRASGVPDRFSGSGSGTDFALKISRVEAEDVGVYYCMQGTHWPVTFGQGTKVEIK | 10.8 fold over isotype |
| antibody 265 (antibody, V domains shown) VH: EVQLVQSGAEVKKPGATVKVSCKFSGDTFSHYYIHWVQQAPGKGLEWMGLVDPQDGESEYAQKFQGKVTITADTSIDTSYLEVTSLRFDDTAFYFCATRGMSGAFDRWGQGTLVTVSS VL: DIVMTQSPDSLAVSLGERATINCKSSQSILSTSNNKNYLAWYQQKPGQPPKLLIYWASTRESGVPDRFSGGGSGTDFTLTISSLQAEDVAVYYCQQYYRTAYTTPIYTFGQGTKLEIK | 14.5 fold over isotype |
| antibody 276 (antibody, V domains shown) VH: QVQLQESGPGLVKPSQTLSLTCTVSGDSISSGGYYWSWIRQHPGKGLEWIGYIYYSGSAYYNPSLKSRVTISLDTSKNQFSLKLSSVTAADTAVYYCARDSVAGFSIFDYWGQGTLVTVSS VL: SSELTQDPAVSVALGQTVRITCQGDSLRSYYASWYQQKPGQAPVRVIYGKNNRPSGIPDRFSGSSSGNTASLTITGAQAEDEADYYCNSWDSSGNHVVFGGGTKLTVL | 11.1 fold over isotype |
| antibody 281 (antibody, V domains shown) VH: not shown VL: QSALTQPASVSGSPGQSITISCTGTSSDVGSYNLVSWYQQHPGKAPKLMIYEVSKRPSGVSNRFSGSKSGNTASLTISGLQAEDEADYYCCSYAGSSTHVVFGGGTKLTVL | 20.3 fold over isotype |

Biological target: SARS-CoV-2 full length spike protein, V483A mutant, expressed on CHO cells (SARS-CoV-2, UniProt P0DTC2 14-1273)

| Binder | median fluorescence intensity, fold over isotype control |
| --- | --- |
| antibody 470 (antibody, V domains shown) VH: not shown VL: QSALTQPASVSGSPGQSITISCTGTSSDVGSYNLVSWYQQHPGKAPKLMIYEVSKRPSGVSNRFSGSKSGNTASLTISGLQAEDEADYYCCSYAGSSTLVFGGGTKLTVL | 7.63 fold over isotype |
| antibody 471 (antibody, V domains shown) VH: QVQLVESGGGVVQPGRSLRLSCAASGFTFSSYAMHWVRQAPGKGLEWVAVISYDGSNKYYADSVKGRFTISRDNSKNTLYLQMNSLRAEDTAVYYCAKQYSPYCSGGSCYSGASDYWGQGTLVTVSS VL: not shown | 2.75 fold over isotype |
| antibody 474 (antibody, V domains shown) VH: EVQLVESGGGLVQPGGSLRLSCAASGFTFSSYWMHWVRQAPGKGLVWVSRINSDGSSTSYADSVKGRFTISRDNAKNTLYRQMNSLRAEDTAVYYCALGPLDIVGSYYYYGMDVWGQGTTVTVSS VL: NFMLTQPHSVSESPGKTVTISCTGSSGSIASNYVQWYQQRPGSAPTTVIYEDNQRPSGVPDRFSGSIDSSSNSASLTISGLKTEDEADYYCQSYDSSNQDVVFGGGTKLTVL | 1.05 fold over isotype |
